Consider eight molecules from patent publication US20060287501A1 (Pieris, published 2006).

Assay [1] addresses T1, recombinant Nogo-A fragment NI-Fr2 (rat, UniProt Q9JK11 233-941, labelled with digoxigenin (molar ratio 5:1) in the colony screening assay).
T1 construct: Truncated rat Nogo-A with C-terminal Strep-tag, made in the E. coli periplasm; also called MI-Fr2; wild-type NI-Fr2
T1 sequence: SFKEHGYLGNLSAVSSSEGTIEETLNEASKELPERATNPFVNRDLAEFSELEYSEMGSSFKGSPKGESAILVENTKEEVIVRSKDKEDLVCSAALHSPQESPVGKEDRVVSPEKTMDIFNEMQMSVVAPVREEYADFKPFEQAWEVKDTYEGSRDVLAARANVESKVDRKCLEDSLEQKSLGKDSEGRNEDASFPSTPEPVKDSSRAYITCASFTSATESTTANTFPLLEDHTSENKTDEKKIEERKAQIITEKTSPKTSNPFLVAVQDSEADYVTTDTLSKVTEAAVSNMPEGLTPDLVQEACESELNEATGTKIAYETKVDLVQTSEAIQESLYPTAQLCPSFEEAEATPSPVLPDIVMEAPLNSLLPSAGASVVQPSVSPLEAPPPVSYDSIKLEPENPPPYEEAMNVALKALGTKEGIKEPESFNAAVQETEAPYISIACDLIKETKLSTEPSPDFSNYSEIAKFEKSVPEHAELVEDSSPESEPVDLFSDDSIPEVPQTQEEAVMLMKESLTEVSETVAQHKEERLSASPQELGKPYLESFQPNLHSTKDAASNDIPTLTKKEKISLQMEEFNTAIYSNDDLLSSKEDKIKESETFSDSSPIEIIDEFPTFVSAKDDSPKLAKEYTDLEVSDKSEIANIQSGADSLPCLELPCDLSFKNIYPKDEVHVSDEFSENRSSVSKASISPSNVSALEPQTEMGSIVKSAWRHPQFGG
Briefly: ELISA; NI-Fr2 coated. The procedure: (§1) ELISA was carried out in a 96 well microtitre plate (Becton Dickinson, Heidelberg, Germany) at ambient temperature with incubation steps of 1 h unless otherwise stated. Three washing steps with PBS/T were used after each incubation, and residual liquid was removed thoroughly. The wells were coated for 4 h with 50 μl of a solution of MI-Fr2 at concentrations between 180 and 200 μg/ml in PBS buffer and then blocked with 200 μl 3% (w/v) BSA, 0.5% (v/v) Tween 20 in PBS. After washing, 50 μl of the purified recombinant Fab fragment was applied at a dilution series in PBS/T. The wells were then incubated with 50 μl anti-human Cκ antibody conjugated with alkaline phosphatase (Sigma), diluted 1:1000 in PBS/T. Signals were finally developed in the presence of p-nitrophenyl phosphate (Voss and Skerra, (1997) Protein Eng., 10, 975-982). Enzymatic activity was measured at 25° C. as the change in absorbance at 405 nm per min with a SpectraMAX 250 instrument (Molecular Devices, Sunnyvale, Calif.). The data were corrected for background values determined in wells that were merely coated with BSA and fitted by non-linear least squares regression as described by Voss and Skerra, supra
Unfortunately, the I.2.6 mutant of the IN-1 Fab fragment was produced as a soluble protein in E. coli at a much lower level, with a relative yield of 5% after purification (0.04 mg L⁻¹ OD⁻¹ vs. 0.8 mg L⁻¹ OD⁻¹ for the wild-type IN-1 Fab fragment). […] Following earlier substitution experiments concerning position L96 (cf. above) attempts were made to replace the Cys residue in the I.2.6 mutant by small apolar side chains such as those of Ala, Val, Met, Leu, and Ile. The substitutions were introduced by site-directed mutagenesis and all corresponding recombinant Fab fragments were produced and purified as before, resulting in yields that were similar again to the wild type IN-1 Fab fragment.
On the technique in general: An ELISA detects its analyte on a solid surface through an enzyme-linked reagent.

The target of assay [2] is T2, mutant of NI-Fr2 devoid of Cys^574 and Cys^676 (rat, UniProt Q9JK11 233-940, labelled with digoxigenin in the colony screening assay).
T2 sequence: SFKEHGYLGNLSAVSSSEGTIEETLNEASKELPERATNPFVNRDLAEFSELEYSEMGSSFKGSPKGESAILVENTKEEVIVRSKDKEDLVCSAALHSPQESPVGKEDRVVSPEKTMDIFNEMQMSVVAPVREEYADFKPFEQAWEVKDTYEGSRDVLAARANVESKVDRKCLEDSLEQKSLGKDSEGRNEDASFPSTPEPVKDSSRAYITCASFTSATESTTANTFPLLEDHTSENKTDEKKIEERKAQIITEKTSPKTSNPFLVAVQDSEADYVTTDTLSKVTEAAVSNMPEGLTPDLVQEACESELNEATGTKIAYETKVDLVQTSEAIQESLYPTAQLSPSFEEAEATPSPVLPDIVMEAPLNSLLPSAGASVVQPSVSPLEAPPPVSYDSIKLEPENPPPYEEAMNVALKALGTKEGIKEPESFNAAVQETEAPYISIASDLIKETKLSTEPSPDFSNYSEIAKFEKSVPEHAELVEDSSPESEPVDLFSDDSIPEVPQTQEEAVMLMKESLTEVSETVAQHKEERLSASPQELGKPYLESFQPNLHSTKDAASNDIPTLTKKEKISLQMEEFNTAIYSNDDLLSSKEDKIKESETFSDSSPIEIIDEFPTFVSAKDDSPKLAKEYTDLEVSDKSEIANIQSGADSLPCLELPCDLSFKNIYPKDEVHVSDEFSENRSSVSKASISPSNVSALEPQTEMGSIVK
Briefly: filter-sandwich colony screening assay; Fab-ABD (pASK106) captured on HSA membrane, labelled NI-Fr2 mutant (no Cys574, Cys676) at 30 µg/ml. The procedure: The first membrane, carrying tiny colonies of the transformed cells, was then placed onto the second (hydrophobic) membrane. The filter sandwich was incubated for 16 h at 22° C. During this period the mutated IN-1 Fab fragments became secreted—and partially released from the colonies by leakage from the bacterial periplasm—and finally immobilized on the lower membrane via complex formation between HSA and ABD.
The first membrane with the still viable colonies was transferred to a fresh LB/Amp agar plate and stored at 4° C. The second membrane was washed three times in PBS containing 0.1% (v/v) Tween 20 (PBS/T) and the immobilized Fab fragments, each in a spot 30 corresponding to the position of the original colony, were probed for antigen binding. To this end recombinant Nogo-A fragment NI-FR2 was labeled at a molar ratio of 5:1 with digoxigenin-3-O-methylcarbonyl-e-aminocaproic acid N-hydroxy-succinimide ester (Roche Diagnostics, Mannheim, Germany) and applied to the membrane for one hour at a concentration of 30 or 50 μg/ml in PBS/T. After washing three times with PBS/T the membrane was incubated for one hour with 0.75 u/ml anti-digoxigenin Fab fragment conjugated with alkaline phosphatase (Roche Diagnostics) in 10 ml PBS/T. The membrane was finally washed twice with PBS/T and twice with PBS and the signals were developed using standard chromogenic substrates as described (Schlehuber et al., supra). Colonies corresponding to signals with an intensity above average were identified, recovered from the first membrane, and propagated for further analysis of their recombinant gene product.
CDR-L3 forms a connecting loop between two neighboring beta-strands such that the positions L91 and L92 are in close spatial proximity with L96. […] This time the stringency of selection was raised by lowering the concentration of the recombinant antigen - a mutant of NI-Fr2 devoid of Cys⁵⁷⁴ and Cys⁶⁷⁶—from 50 μg/ml to 30 μg/ml.

The target in assay [3] is T1, recombinant Nogo-A fragment NI-Fr2. Briefly: ELISA, wells coated with NI-Fr2, bound Fab detected with anti-human Ckappa antibody-alkaline phosphatase, delta A405/delta t. On the procedure:
Antigen-binding activity of the mutant Fab fragments was subsequently tested by ELISA using the recombinant NI-Fr2 for coating of the microtitre plate wells (FIG. 2).
as §1

B1: I.2.6 Fab fragment with Cys L96 replaced by Ala (Fab, V domains shown)
VH: EVKLHESGPGLVRPGTSVKISCKASGYTFTNYWLGWVKQRPGHGLEWIGDIYPGGGYTNYNEKFKGKATLTADTSSSTAYMQLSSLTSEDSAVYFCARFYYGSSYWYFDVWGQGTTVTVSS
VL: DIELTQSPAIMAASVGETVTITCGASENIYGALNWYQRKQGKSPQLLIYGATNLADGMSSRFSGSGSGRQYSLKISSLHPDDVATYYCQNVLRVPATFGAGTKLEIK
notes: Chimeric Fab, human IgG1/kappa constant domains
Consider B1, for which the binding result in assay [1] was “no binding”.

B2: II.1.3 Fab fragment (Fab, V domains shown)
VH: EVKLHESGPGLVRPGTSVKISCKASGYTFTNYWLGWVKQRPGHGLEWIGDIYPGGGYTNYNEKFKGKATLTADTSSSTAYMQLSSLTSEDSAVYFCARFYYGSSYWYFDVWGQGTTVTVSS
VL: DIELTQSPAIMAASVGETVTITCGASENIYGALNWYQRKQGKSPQLLIYGATNLADGMSSRFSGSGSGRQYSLKISSLHPDDVATYYCQNMKRVPVTFGAGTKLEIK
notes: as for B1
For the molecule B2, the binding result in assay [2] is “binds”.

B3: I.2.6 Fab fragment with Cys L96 replaced by Met (Fab, V domains shown)
VH: EVKLHESGPGLVRPGTSVKISCKASGYTFTNYWLGWVKQRPGHGLEWIGDIYPGGGYTNYNEKFKGKATLTADTSSSTAYMQLSSLTSEDSAVYFCARFYYGSSYWYFDVWGQGTTVTVSS
VL: DIELTQSPAIMAASVGETVTITCGASENIYGALNWYQRKQGKSPQLLIYGATNLADGMSSRFSGSGSGRQYSLKISSLHPDDVATYYCQNVLRVPMTFGAGTKLEIK
notes: as for B1
As to B3, the binding result in assay [1] was “no binding”.

B4: II.1.7 Fab fragment (Fab, V domains shown)
VH: EVKLHESGPGLVRPGTSVKISCKASGYTFTNYWLGWVKQRPGHGLEWIGDIYPGGGYTNYNEKFKGKATLTADTSSSTAYMQLSSLTSEDSAVYFCARFYYGSSYWYFDVWGQGTTVTVSS
VL: DIELTQSPAIMAASVGETVTITCGASENIYGALNWYQRKQGKSPQLLIYGATNLADGMSSRFSGSGSGRQYSLKISSLHPDDVATYYCQNLKRVPVTFGAGTKLEIK
notes: as for B1
Consider B4, for which the binding result in assay [2] is reported as “binds”.

B5: II.1.1 Fab fragment (Fab, V domains shown)
VH: EVKLHESGPGLVRPGTSVKISCKASGYTFTNYWLGWVKQRPGHGLEWIGDIYPGGGYTNYNEKFKGKATLTADTSSSTAYMQLSSLTSEDSAVYFCARFYYGSSYWYFDVWGQGTTVTVSS
VL: DIELTQSPAIMAASVGETVTITCGASENIYGALNWYQRKQGKSPQLLIYGATNLADGMSSRFSGSGSGRQYSLKISSLHPDDVATYYCQNRKRVPVTFGAGTKLEIK
notes: as for B1
Turning to B5, the binding result in assay [2] was “binds”.

B6: I.2.6 Fab fragment with Cys L96 replaced by Ile (Fab, V domains shown)
VH: EVKLHESGPGLVRPGTSVKISCKASGYTFTNYWLGWVKQRPGHGLEWIGDIYPGGGYTNYNEKFKGKATLTADTSSSTAYMQLSSLTSEDSAVYFCARFYYGSSYWYFDVWGQGTTVTVSS
VL: DIELTQSPAIMAASVGETVTITCGASENIYGALNWYQRKQGKSPQLLIYGATNLADGMSSRFSGSGSGRQYSLKISSLHPDDVATYYCQNVLRVPITFGAGTKLEIK
notes: as for B1
Take B6: the binding result in assay [1] is given as “no binding”.

B7: I.2.6(L96V) Fab fragment (Fab, V domains shown)
VH: EVKLHESGPGLVRPGTSVKISCKASGYTFTNYWLGWVKQRPGHGLEWIGDIYPGGGYTNYNEKFKGKATLTADTSSSTAYMQLSSLTSEDSAVYFCARFYYGSSYWYFDVWGQGTTVTVSS
VL: DIELTQSPAIMAASVGETVTITCGASENIYGALNWYQRKQGKSPQLLIYGATNLADGMSSRFSGSGSGRQYSLKISSLHPDDVATYYCQNVLRVPVTFGAGTKLEIK
notes: Chimeric Fab, human IgG1/kappa constant domains; also called I.2.6(^L96Val) Fab fragment; replacement Cys^L96->Val
On to B7, for which the binding result in assay [3] is “binds”.

B8: I.2.6 Fab fragment with Cys L96 replaced by Leu (Fab, V domains shown)
VH: EVKLHESGPGLVRPGTSVKISCKASGYTFTNYWLGWVKQRPGHGLEWIGDIYPGGGYTNYNEKFKGKATLTADTSSSTAYMQLSSLTSEDSAVYFCARFYYGSSYWYFDVWGQGTTVTVSS
VL: DIELTQSPAIMAASVGETVTITCGASENIYGALNWYQRKQGKSPQLLIYGATNLADGMSSRFSGSGSGRQYSLKISSLHPDDVATYYCQNVLRVPLTFGAGTKLEIK
notes: as for B1
Regarding B8, the binding result in assay [1] is on record as “no binding”.
